Usually Kd stands for the equilibrium constant for the complex coming apart. As a reminder, the koff is the rate constant with which the complex falls apart. For orientation: kon means a measure of how fast the partners come together. One may read the EC50 as the midpoint of the concentration-response curve.

This is an account of results in patent US20210079109A1 (Regeneron, published 2021).

The target in assay [1] is T1, recombinant human CD63 extracellular loop 2 expressed with a C-terminal human Fc tag (human).
T1 construct: also called hCD63 EC loop 2-hFc; human CD63 EC loop 2-Fc
Nature of the assay: SPR Biacore, mAb captured, 37C. Put shortly:
(§1)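 Anti-CD63 mAbs captured on anti-mouse Fc or anti-human Fab surfaces; CD63 EC2 reagents flowed in HBS-ET, pH 7.4, at 25° C or 37° C. ka and kd from 1:1 binding model with mass transport limitation; KD and t½ calculated from kinetic rates.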
In general terms: SPR reads the build-up and loss of mass on a sensor chip optically.

Assay [2] has as its target T2, recombinant human CD63 extracellular loop 2 expressed with a C-terminal Myc-Myc-hexahistidine (human).
T2 construct: also called hCD63 EC loop 2-MMH; human CD63 EC loop 2-MMH
The assay is described as follows: SPR Biacore, mAb captured, 37C. The method, boiled down:
as §1

In assay [3] the target is T1, recombinant human CD63 extracellular …. Nature of the assay: SPR Biacore, mAb captured, 25C. The method, boiled down:
as §1

Assay [4] deals with T3, human CD63 (human, UniProt P08962 2-238).
T3 sequence: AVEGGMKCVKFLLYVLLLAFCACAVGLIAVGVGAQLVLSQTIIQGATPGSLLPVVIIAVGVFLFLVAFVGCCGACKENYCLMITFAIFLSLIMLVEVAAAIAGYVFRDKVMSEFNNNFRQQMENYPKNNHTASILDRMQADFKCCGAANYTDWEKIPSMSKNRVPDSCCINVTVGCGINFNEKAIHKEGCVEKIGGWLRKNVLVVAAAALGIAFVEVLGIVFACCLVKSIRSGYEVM
Nature of the assay: cell-based or functional assay.

For assay [5], the target named is T3, human CD63. Nature of the assay: flow cytometry, HEK293 cells. The procedure:
Relative cell surface binding of the anti-CD63 antibodies to human CD63 expressing cells was accessed via flow cytometry using CD63 positive HEK293 cells (ATCC, Cat #CRL-1573), which endogenously express human CD63, and CD63 negative HEK293/CD63 knock out cells. For the assay, cells were plated in PBS without calcium and magnesium (VWR, Cat #45000-446), containing 2% FBS (Saradigm Cat #1500-500) (Staining Buffer) in 96 well V-bottom plates (Axygen Scientific, Cat #P-96-450-V-C-S). Cells were then incubated with anti-CD63 antibodies or isotype control antibodies at concentrations ranging from 100 nM to 1.7 pM for 30 minutes on ice. Wells containing no antibody were used as controls. HEK293/CD63KO cells were stained with only the highest concentration (100 nM) of the antibodies. […] Cells were then washed and fixed using a 50% solution of Cytofix (BD Biosciences, Cat #554655) diluted in PBS. Samples were run on the Intellicyte Hypercyt flow cytometer and results were analyzed in ForeCyt software (Intellicyte) to calculate the mean fluorescent intensity (MFI). Measured values were analyzed using a four parameter logistic equation over a 12-point response curve using GraphPad Prism and the resulting EC₅₀ values are reported (Table 12). The signal to noise ratio (S/N) was determined by calculating the ratio of the anti-CD63 antibodies or the control antibodies MFI to the wells containing no antibodies (Table 12).
A general note: Flow cytometry measures light scatter and fluorescence of single cells or particles in a stream.

Assay [6] has as its target T3, human CD63. Nature of the assay: imaging of stained T47D cells, 10 ug/mL antibody. Here is the method: To stain, quadruplicate plates of cells were incubated with 10 μg/mL of anti-CD63 antibodies that was diluted in 2% FBS in PBS, without Calcium and Magnesium (Irving, Cat #9240) (staining buffer) for 30 minutes at 4° C. […] Two plates were immediately fixed and stained with 4% paraformaldehyde (PFA; ThermoFisher, Cat #28908)+5 uM DRAQ5 (ThermoFisher, Cat #62251) in PBS for 20 minutes (non-internalization plates). The remaining two plates were incubated with growth media at 37° C. for 2 hours followed by fixation and staining for 20 minutes using a solution of 4% PFA+5 μM DRAQ5 diluted in PBS (internalization plates). After fixation, all plates were washed once with PBS. One non-internalization plate and one internalization plate were incubated with an anti-Alexa Fluor 488 antibody (Regeneron) at 50 μg/mL in PBS overnight at 4° C. to quench surface Alexa Fluor 488 fluorescence. The remaining plates were incubated with PBS only. Confocal images were acquired on the Opera Phenix (Perkin Elmer) at 40× magnification. Harmony analysis software (Perkin Elmer) was utilized to identify DRAQ5-labeled cells and the total Alexa-Fluor 488 relative fluorescent units (RFU) per cell was determined. The total binding at 4° C. (RFU values of 4° C. unquenched wells), total binding at 37° C. (RFU values of 37° C. unquenched wells), the total internalized RFU, and the % Internalization were determined for each antibody as shown in Table 1. For all calculations, background fluorescence from 2nd Ab only control wells were subtracted from every well. Total internalized RFU was calculated as follows: Total RFU of 37° C. unquenched samples−Surface RFU at 37° C. Surface RFU is defined as unquenched RFU at 37° C.−quenched RFU at 37° C.)/QE. QE (quenching efficiency) is defined as: 1−(Total RFU of 4° C. quenched sample/Total RFU of 4° C. unquenched sample). The % Internalization was determined from the following formula: (Total internalized RFU at 37° C./Total RFU at 37° C.)*100.

T2 sequence (chain, as listed by the source limits assumed): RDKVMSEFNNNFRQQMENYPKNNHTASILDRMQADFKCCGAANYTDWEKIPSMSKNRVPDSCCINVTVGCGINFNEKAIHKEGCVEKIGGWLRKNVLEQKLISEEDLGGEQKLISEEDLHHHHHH
T1 sequence (chain, as listed by the source limits assumed): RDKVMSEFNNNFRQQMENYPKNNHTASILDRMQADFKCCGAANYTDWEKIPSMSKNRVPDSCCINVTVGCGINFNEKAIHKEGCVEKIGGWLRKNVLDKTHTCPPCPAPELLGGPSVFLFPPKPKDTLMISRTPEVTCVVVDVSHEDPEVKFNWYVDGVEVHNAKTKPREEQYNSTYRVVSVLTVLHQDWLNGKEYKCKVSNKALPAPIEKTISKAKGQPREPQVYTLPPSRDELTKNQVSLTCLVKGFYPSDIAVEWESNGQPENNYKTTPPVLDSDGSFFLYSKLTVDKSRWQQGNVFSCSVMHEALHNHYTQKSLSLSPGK

B1: H2M12450N (antibody, V domains shown)
VH: QVQLQESGPKVVKPSETLSLTCTVSGGSISSYYWNWIRQSPGKGLEWIGYTKRGYTDYNPSLRSRVTISEDTSKNQFSLRISSVTAADTAVYYCAQMGWGSHAFDMWGQGTMVAVSS
VL: EIVLTQSPGTLSLSPGERATLSCRASQSVNSRYLAWYQQKPGQAPRLLIYGASSRATGIPDRCSGSGSGTDFTLTISRLEPEDFAVYYCQQYGSSPWTFGQGTKVEIK
notes: also called H2aM12450N; mAb12450
For the molecule B1, in assay [1], the “100 nM Ag Bound (RU)” value amounted to 138 RU, the Kd worked out at 0.119 nM, the koff stood at 4.89e-05 s⁻¹ and the kon was found to be 411000 M⁻¹ s⁻¹. In addition, the t1/2 in assay [1] is 236 min. Besides, in assay [2], the “100 nM Ag Bound (RU)” value was determined as 58 RU, the Kd is 1.15 nM, the koff is 0.000201 s⁻¹ and the kon came to 175000 M⁻¹ s⁻¹. Further, the t1/2 in assay [2] came to 57 min. In addition, in assay [3], the “100 nM Ag Bound (RU)” value worked out at 134 RU, the dissociation constant (Kd) stood at 0.15 nM, the koff turned out to be 4.66e-05 s⁻¹ and the kon stood at 320000 M⁻¹ s⁻¹. The t1/2 in assay [3] amounted to 248 min. For the same molecule, in the assay with human CD63 [4], the “% Internalization, T47D cells” value is 60.9% and the “Total Internalized RFU, T47D cells” value was 1.79e+06 RFU. Moreover, in the assay with human CD63 [5], it took 0.5 nM to reach a half-maximal effect (EC50) and the “S/N (MFI over no-antibody wells)” value was 26.7. Further, in the assay with human CD63 [6], the “Total RFU at 4C” value worked out at 2.36e+06 RFU and the “Total RFU at 37C (2 h)” value is 2.94e+06 RFU.

B2: H1M12451N (antibody, V domains shown)
VH: QVQLQESGPGLMKPSETLSLTCTVSGGSFSSYYWNWIRQSPGKGLEWIGYIRYSGDTNYKPSLKSRFTISIDTSKNLFSLRLKSVTAADTAVYYCARMGLGSDAFDIWGQGTMVTVSS
VL: EIVLTQSPGTLSLSPGERATLSCRASQSVNNNYLAWYQQKPGQAPRLLIYGVFNRATNIPDRFSGSGSGTDFTLTISRLEPEDFAVYYCQQYGSSPWTFGQGTKVEIK
Turning to B2, in assay [1], the “100 nM Ag Bound (RU)” value is 118 RU, the Kd was found to be 0.509 nM, the koff is 0.000331 s⁻¹ and the kon stood at 651000 M⁻¹ s⁻¹. Further, the t1/2 in assay [1] amounted to 35 min. Also, in assay [2], the “100 nM Ag Bound (RU)” value came out at 44 RU, the Kd worked out at 21.4 nM, the koff is 0.0019 s⁻¹ and the kon was determined as 88900 M⁻¹ s⁻¹. Also, the t1/2 in assay [2] amounted to 6 min. For the same molecule, in assay [3], the “100 nM Ag Bound (RU)” value was 107 RU, the Kd is 0.704 nM, the koff came out at 8.4e-05 s⁻¹ and the kon stood at 119000 M⁻¹ s⁻¹. For the same molecule, in assay [3], the t1/2 is 138 min. In the assay with human CD63 [4], the “% Internalization, T47D cells” value came out at 73.7% and the “Total Internalized RFU, T47D cells” value worked out at 1.71e+06 RFU. Moreover, in the assay with human CD63 [5], it took 1.8 nM to reach a half-maximal effect (EC50) and the “S/N (MFI over no-antibody wells)” value was 31.6. In addition, in the assay with human CD63 [6], the “Total RFU at 4C” value stood at 1.9e+06 RFU and the “Total RFU at 37C (2 h)” value was 2.32e+06 RFU.

B3: H2M12395N (antibody, V domains shown)
VH: QVQLQESGPRLVKPSETLSLTCIVSGGSISNFYWNWIRQSPGKGLEWIGYFFYTGTIDYNPSLKSRVTISLDTSKNQFSLNLRLLTAADAAVYYCARMGLGANAFDIWGHGTMVTVSS
VL: EIVLTQSPGTLSLSPGERATLSCRASQHVSSNYLAWYQQKPGQAPRLLIYGGSSRATGIPDRFSGSGSGTDFTLTISRLEPADFAVFYCQQYGNSPWTFGQGTKVEMK
notes: also called H2aM12395N
For the molecule B3, in assay [1], the “100 nM Ag Bound (RU)” value turned out to be 123 RU, the Kd was determined as 3.38 nM, the koff stood at 0.00179 s⁻¹ and the kon came to 529000 M⁻¹ s⁻¹. Moreover, the t1/2 in assay [1] is 6 min. In addition, in assay [2], the “100 nM Ag Bound (RU)” value worked out at 31 RU, the Kd worked out at 56.4 nM, the koff stood at 0.00932 s⁻¹ and the kon was 165000 M⁻¹ s⁻¹. Further, the t1/2 in assay [2] amounted to 1 min. Moreover, in assay [3], the “100 nM Ag Bound (RU)” value turned out to be 117 RU, the Kd is 0.753 nM, the koff came to 0.00051 s⁻¹ and the kon worked out at 677000 M⁻¹ s⁻¹. The t1/2 in assay [3] amounted to 23 min. Further, in the assay with human CD63 [4], the “% Internalization, T47D cells” value is 73.2% and the “Total Internalized RFU, T47D cells” value is 1.24e+06 RFU. In the assay with human CD63 [5], the EC50 worked out at 1.9 nM and the “S/N (MFI over no-antibody wells)” value came to 21. In the assay with human CD63 [6], the “Total RFU at 4C” value came to 1.5e+06 RFU and the “Total RFU at 37C (2 h)” value came to 1.69e+06 RFU.
